We go through one molecule from publication PMC12157784, “Photoelectrochemical Biosensor Based on 1D In2O3 Tube Decorated with 2D ZnIn2S4 Nanosheets for Sensitive PSA Detection”.

This data set has as its target prostate specific antigen (PSA) (UniProt P07288 25-261). Briefly: photoelectrochemical aptasensor (photocurrent decrease); PBS pH 7.4, aptamer immobilised on FTO/In2O3-ZnIn2S4, BSA blocked; linear 0.001-50 ng/mL, LOD 0.00037 ng/mL (not a Kd); PSA incubated 30 min at room temperature on aptamer electrode; 0.01 M PBS pH 7.4 as incubation/wash buffer; photocurrent read in 0.1 M ascorbic acid.

Chain of prostate specific antigen (PSA) (P07288 25-261): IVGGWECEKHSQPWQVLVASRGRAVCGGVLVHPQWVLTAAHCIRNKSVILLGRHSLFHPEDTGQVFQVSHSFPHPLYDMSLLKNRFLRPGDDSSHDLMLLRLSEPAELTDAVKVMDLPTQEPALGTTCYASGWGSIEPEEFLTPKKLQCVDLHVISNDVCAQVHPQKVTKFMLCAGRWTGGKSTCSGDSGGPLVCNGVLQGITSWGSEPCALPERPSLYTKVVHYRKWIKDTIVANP

B1: PSA aptamer (ssDNA)
DNA: ATTAAAGCTCGCCATCAAATAGC
modifications: 5'-NH2-(CH2)6
Take B1: the binding result is recorded as “binds”.
